The target of this assay is CD6分子 (CD6 on the cell surface) (human) (UniProt P30203). Briefly: cell-based or functional assay.

Results on one substance are retold here after CN102559636A.

人源化抗CD6单克隆抗体T1h (Itolizumab) (antibody) showed an HUT-78生长抑制率 (CCK-8, 72 h, 100 ng/mL Hum-zap) at T1h 0.8 μM of 11.4%; a 细胞生长抑制率 of HUT-78 (CCK-8, 72 h, 100 ng/mL Hum-zap) at T1h 8×10-2, 8×10-3 and 8×10-4 μM greater than 65%; a 细胞生长抑制率 of HUT-78 (CCK-8, 72 h, 100 ng/mL Hum-zap) at T1h 8×10-5, 8×10-6, 8×10-7 and 8×10-8 μM of less than 10%.
